According to paper PMC7293033:

Assays:
Test in all cases: SPR
[1] = target: His-FGF2, LMW FGF2 (residues 135-288, C211S/C229S), P09038; conditions: chain shown with the change; concentration series 0.031, 0.063, 0.13, 0.25, 0.50, 1.0, 2.0, 4.0, 8.0, 16 µM
[2] = target: T1, His-FGF2 Mut (C211S/C229S/R262A/T263A/K271A), P09038; conditions: chain shown with the change; concentration series 0.25, 0.50, 1.0, 2.0, 4.0, 8.0, 16, 32, 64 µM
T1 chain: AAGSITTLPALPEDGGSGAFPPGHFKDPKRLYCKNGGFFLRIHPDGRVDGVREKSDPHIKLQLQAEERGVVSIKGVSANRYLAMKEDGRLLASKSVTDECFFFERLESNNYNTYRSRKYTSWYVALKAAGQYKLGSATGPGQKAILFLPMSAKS

[3] = target: T2, His-API5 (apoptosis inhibitor 5, residues 1-504, isoform 2), wild type; conditions: chain shown with the change; concentration series 0.13, 0.25, 0.50, 1.0, 2.0, 4.0, 8.0, 16 µM
T2 chain: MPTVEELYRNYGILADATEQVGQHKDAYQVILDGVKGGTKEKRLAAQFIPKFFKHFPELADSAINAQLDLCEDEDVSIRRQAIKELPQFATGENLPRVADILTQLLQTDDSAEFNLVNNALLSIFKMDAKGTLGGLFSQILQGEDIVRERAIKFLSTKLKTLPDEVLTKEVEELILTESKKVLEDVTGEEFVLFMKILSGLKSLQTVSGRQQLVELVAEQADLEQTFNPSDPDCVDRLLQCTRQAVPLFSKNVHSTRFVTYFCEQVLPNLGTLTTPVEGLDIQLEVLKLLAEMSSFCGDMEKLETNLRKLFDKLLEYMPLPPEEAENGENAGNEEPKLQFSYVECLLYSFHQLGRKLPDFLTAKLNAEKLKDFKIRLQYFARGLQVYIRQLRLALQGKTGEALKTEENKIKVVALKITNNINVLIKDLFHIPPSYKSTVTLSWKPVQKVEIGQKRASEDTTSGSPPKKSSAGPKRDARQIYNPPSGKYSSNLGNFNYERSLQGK

B1: His-API5 (apoptosis inhibitor 5, residues 1-504, isoform 2), wild type E184A; D185A; E190A (protein)
chain: MPTVEELYRNYGILADATEQVGQHKDAYQVILDGVKGGTKEKRLAAQFIPKFFKHFPELADSAINAQLDLCEDEDVSIRRQAIKELPQFATGENLPRVADILTQLLQTDDSAEFNLVNNALLSIFKMDAKGTLGGLFSQILQGEDIVRERAIKFLSTKLKTLPDEVLTKEVEELILTESKKVLAAVTGEAFVLFMKILSGLKSLQTVSGRQQLVELVAEQADLEQTFNPSDPDCVDRLLQCTRQAVPLFSKNVHSTRFVTYFCEQVLPNLGTLTTPVEGLDIQLEVLKLLAEMSSFCGDMEKLETNLRKLFDKLLEYMPLPPEEAENGENAGNEEPKLQFSYVECLLYSFHQLGRKLPDFLTAKLNAEKLKDFKIRLQYFARGLQVYIRQLRLALQGKTGEALKTEENKIKVVALKITNNINVLIKDLFHIPPSYKSTVTLSWKPVQKVEIGQKRASEDTTSGSPPKKSSAGPKRDARQIYNPPSGKYSSNLGNFNYERSLQGK
With B1 as the binder, how does the koff [1] read?
Its koff is 0.0094 s⁻¹.

B2: m1; m2 API5: E184A; D185A; E190A; FGF2: R262A; T263A; K271A (protein)
chain: MPTVEELYRNYGILADATEQVGQHKDAYQVILDGVKGGTKEKRLAAQFIPKFFKHFPELADSAINAQLDLCEDEDVSIRRQAIKELPQFATGENLPRVADILTQLLQTDDSAEFNLVNNALLSIFKMDAKGTLGGLFSQILQGEDIVRERAIKFLSTKLKTLPDEVLTKEVEELILTESKKVLAAVTGEAFVLFMKILSGLKSLQTVSGRQQLVELVAEQADLEQTFNPSDPDCVDRLLQCTRQAVPLFSKNVHSTRFVTYFCEQVLPNLGTLTTPVEGLDIQLEVLKLLAEMSSFCGDMEKLETNLRKLFDKLLEYMPLPPEEAENGENAGNEEPKLQFSYVECLLYSFHQLGRKLPDFLTAKLNAEKLKDFKIRLQYFARGLQVYIRQLRLALQGKTGEALKTEENKIKVVALKITNNINVLIKDLFHIPPSYKSTVTLSWKPVQKVEIGQKRASEDTTSGSPPKKSSAGPKRDARQIYNPPSGKYSSNLGNFNYERSLQGK
With B2 as the binder, how does the koff [2] read?
Its koff is 0.00328 s⁻¹.

And the other: t1/2 (half-life of complex) [2]?
Its other: t1/2 (half-life of complex) is 3.52 min.

B3: His-FGF2, LMW FGF2 (residues 135-288, C211S/C229S), P09038 R262A; T263A; K271A (protein)
chain: AAGSITTLPALPEDGGSGAFPPGHFKDPKRLYCKNGGFFLRIHPDGRVDGVREKSDPHIKLQLQAEERGVVSIKGVSANRYLAMKEDGRLLASKSVTDECFFFERLESNNYNTYRSRKYTSWYVALKAAGQYKLGSATGPGQKAILFLPMSAKS
For B3, which koff [3] is on record?
The koff was 0.00251 s⁻¹.
